From the DeepSol protein solubility set

Assay: soluble on expression in E. coli; label from the status in PepcDB or PDB records

Sequence	soluble on expression in E. coli
MSLAFYIATFDIGTTEVKAALADRDGGLHFQRSIALETYGDGNGPVEQDAGDWYDAVQRIASSWWQSGVDARRVSAIVLSGQMQNFLPLDQDHEPLHRAVLYSDKRPLKEAEEINARHGADNLWSALENPMTAASILPKLVFWRASFPQAFGRLRHVVLGAKDYVVLRLTGRHATDRTNASTTGLYRPKDDAWHVELLADYGFSLDLMPRLLEPGEQVGGVSALAARQTGFVSGTPVLCGLGDAGAATLGVGVLDDEDAYLHLGTTGWLARLTQTDPVGDMPVGTIFRLAGIIAGKTLQVAPVLNAGNILQWALTLVGHRPGEDCAEYFHMAAAEVQGVTVPDGLLFVPYLHAERCPVELPAPRGALLGVTGATTRAQILLAVLEGAALSLRWCAELLGMEKVGLLKVVGGGARSEAWLRMIADNLNVSLLVKPDAHLHPLRGLAALAAVELEWSHSIQDFLREADLREPASNILHPQPCDEGRRRRKFERFKQCVETLGRLDEGHHHHHH	soluble
MTKEEMRNAILDIFQSNPQSVMNYKQVSHLMGVEAAPQKLMVNSLMEDMAVDDILHEIERGRYRYNALGLIVIGTFERRFNGRNSFIPEGGGTPIFIAERNSAHAMDGDKVKVQLFAKRRGRAPEAAVIEIIEQKQATFVGKIQINRDFAFLVTEDRTLANDIFIPKDNLGNAKNGDKVIVRILEWPEQSKNPIGEVQAVLGPAGDNDAEMNAILAEFGLPYVYPQEVEEAADRLDGKITEEELARREDFRSILTFTIDPKDAKDFDDAISFRPLEDDCYEVGVHIADVSHYVTEGGIIDQEAYNRATSIYLVDRTIPMLPERLCNDLCSLRPDEEKYAYSCIFRMNDEAKVLDYRICHSVIKSDRRFAYEEAQAVIETGEGDCKEAILKLNELAQRLRKERFQNGAIAFERKEVRFEIDEKGRPLGVIVKESKEANKLIEEFMLLANRTVARHIGEETQGKRAKTFVYRIHDLPDPDKLETLSDFIRRFGYKLRTTGSNVEVSKSINSLLDNIQNKPEENLISTVAIRSMAKAIYSTDNIGHYGLAFDFYTHFTSPIRRYPDLMVHRLLTKYLSGGSSVDKNDYEEKCKHSSAMEQLAASAERASIKYKQVEFMSEHLGKVFDGVISGVTEWGLYVELKENMCEGLIPIRCLDDDYYEYDDKNFCLIGRRYRHRYSLGDAITVRVAQANLDRKQLDFEPVS	not soluble
MTFRNCVAVDLGASSGRVMLARYERECRSLTLREIHRFNNGLHSQNGYVTWDVDSLESAIRLGLNKVCAAGIAIDSIGIDTWGVDFVLLDQQGQRVGLPVAYRDSRTNGLMAQAQQQLGKRDIYQRSGIQFLPFNTLYQLRALTEQQPELIPHIAHALLMPDYFSYRLTGKMNWEYTNATTTQLVNINSDDWDESLLAWSGANKAWFGRPTHPGNVIGHWICPQGNEIPVVAVASHDTASAVIASPLNGSRAAYLSSGTWSLMGFESQTPFTNDTALAANITNEGGAEGRYRVLKNIMGLWLLQRVLQERQINDLPALIAATQALPACRFIINPNDDRFINPDEMCSEIQAACREMAQPIPESDAELARCIFDSLALLYADVLHELAQLRGEDFSQLHIVGGGCQNTLLNQLCADACGIRVIAGPVEASTLGNIGIQLMTLDELNNVDDFRQVVSTTANLTTFTPNPDSEIAHYVALIHSTRQTKELCA	soluble
MGSDKIHHHHHHMLATTIGSIAMRRRVSSLVKVRPAGAATQPALGLRVPLVALVQALAVAEHLNFRHAADALGISQSSVSTRIKQLEQDLGVQLFERRHRGVRLTEAGQHFLEHVATGIEHLDHAVRTAGAIARGERGRLRVGLYSSIFAGFLAELLGQFRGQYPTVDLQIMEGRARDTIRAVREARLDVAFVVGVPKVSDCHSKPLWTEALFVALPERHALAEAEGVTWPALSGASFLARTGGPGPQVHDHIVLRLAGHWCQPRIQRFDVERDTLMSMVAQGYGITLTSEAAAQVPFPGVVFRPVLDETELITFSALWSPHNRCQTLLHLLALAEQKSEGRSLGI	not soluble
MRKVTLMDVFTHPIAQKYLQRSGVAHAIACAYHAYRLSVKADINPDLAAKAALLHDIGHYEWYTDGKWDYEKYKRNDIHAIKGAERAHKLLIRLGEEPKAAKEIALAILLHTDSYLPEGELDKNTLQQIVKKADELDEEPGGHHHYRQIDPSTARKKIEKLDQLIDQAQASVIKPV	not soluble
MLRISELKLPLGHPPDAMEPAILARLGLSATDLVSFAVARRANDARKKSAIQMVYSVDVVLRDEAAVLRRFEGDHHLRVTPDTGYHFVAKAPEGFDGPRPVVIGAGPCGLFAGLILAQMGLKPIIVDRGKVVRERTKDTWGLWRRSELNPESNVQFGEGGAGTFSDGKLYSQIKDPRFLGRKVLTEFVKAGAPEEILTEAHPHIGTFRLVHMVENMRALIESLGGEYRWQHRVEDFDIEVGEDGVRRVTGLHIAGQGHLPARHVVMALGHSSRDTFQVLYDRGVHIEAKPFSIGVRIEHPQSWIDRARFGDCAGHKDLGAAAYAISHHAKNGRTVYSFCMCPGGTVVAATSEPGRVVTNGMSQYSRNERNANSGFVVDIDPERDYPGHPLAGVDFQRKWESLAFQAGGGTYQAPGQLVGDFLAGRPSTVFGAVTPSYKPGVHLTDLAQCLPDFAIEAMREALPIFGRQIPGYDHPDVVLTGVETRTSSPVRITRGKDFQSLNTAGLYPAGEGAGYAGGILSAAVDGIKVAEAVAKQYVAEGLISACLEHHHHHH	soluble
GPGSMYVGCVGKDKHGDQIRSAAEADGTTMELEVSSDKRSGLCVVCRDGNSRTLVVHPSSASSLRDDFVSSAAAQEGQRSAKTVYTTAYASVVRVRQTLQLMTSSRCHTLPDGLKQLAAMGLANQRVLDDFGEGLVDVLGKLDIIIGNPEEMYDLAMMLQWVPSEMSDMVLAKKIATEMMCDRHGVRRVIMTRGAEPIIYAASAGESGEVPVVATCAHSAKLLATGAGDAFAGGFLAAMAAKPDDVAFCCRLSAQAATFMINHSLVTLRTDEACLAELQT	not soluble
MSLNVNFFVTCIGDALKSRMARDSVLLLEKLGCRVNFPEKQGCCGQPAINSGYIKEAIPGMKNLIAALEDNDDPIISPAGSCTYAVKSYPTYLADEPEWASRAEKVAARMQDLTSFIVNTLGVVDVGASLQGRAVYHPSCSLARKLGVKDEPLTLLKNVRGLELLTFAEQDTCCGFGGTFSVKMAEISGEMVKEKVAHLMEVRPEYLIGADVSCLLNISGRLQREGQKVKVMHIAEVLMSREGHHHHHH	not soluble
EGLPVLAPVTKDTATSLYTIPFHDGASLVLDVAGLLVWSTCEGGQSPAEIACSSPTCLLANAYPAPGCPAPSCGSDRHDKPCTAYPSNPVTGACAAGSLFHTRFAANTTDGNKPVSEVNVRVLAACAPSKLLASLPRGSTGVAGLAGSGLALPSQVASAQKVPNKFLLCLPTGGPGVAIFGGGPLPWPQFTQSMDYTPLVAKGGSPAHYISARSIKVENTRVPISERALATGGVMLSTRLPYVLLRRDVYRPLVDAFTKALAAQPANGAPVARAVKPVAPFELCYDTKTLGNNPGGYWVPNVLLELDGGSDWAMTGKNSMVDVKPGTACVAFVEMKGVDAGDGSAPAVILGGAQMEDFVLDFDMEKKRLGFLRLPHFTGCSSFNFARST	soluble
MHPTYSAVQARLLEANRLSPELLAKSLCIIGAHHVDYADIYCQRTAYESWHLEEGIVKSGSFQINQGVGVRAVSGDKTAFAYADSLCIDSINRSARAVRAIGAAGGKVSAKMPSETRGKPVCSASDPIAGLDSAAKVALLNKVEAIAKAADPRIVQVMAGLTCEYDMVYLARLDGKHAADIRPMVRLNVTVIAKQGERREQGSAGGGGRYDLAYFDENLVHRFVDAAVKQALTNLESRPAPAGEMTVVLGNGWPGVLLHEAVGHGLEGDFNRKGTSVFSGRIGERVAAKGVTVVDQGDIAGRRGSLNIDDEGNETRRTVLIEDGILVGYMQDETNARLTGTQSTGNGRRESYASAPMPRMTNTFMENGSYEPEEIIASIDKGIYAVNFGGGQVDITSGKFVFSASEAWWVEGGRLQYPVKGATIIGNGPEVLKHVSMIGNDTALDSGVGVCGKEGQSVPVGVGQPTLRIDAGLTVGGSAI	not soluble
